Test results taken from patent US20260242735A1 (UNIVERSIT T BASEL, published 2026).

B1: Refmab #5 (antibody, V domains shown)
VH: QVQLVQSGAEVKKPGASVKVSCKASGYTFTNYDINWVRQAPGQGLEWIGWIYPGDGSTKYNEKFKAKATLTADTSTSTAYMELRSLRSDDTAVYYCASGYEDAMDYWGQGTTVTVSS
VL: DIQMTQSPSSLSASVGDRVTINCKASQDINSYLSWFQQKPGKAPKTLIYRANRLVDGVPSRFSGSGSGQDYTLTISSLQPEDFATYYCLQYDEFPLTFGGGTKVEIK
notes: The alanine scan used IgG or Fab
B2: Refmab #6 (antibody, V domains shown)
VH: QVQLQQPGAEVVKPGASVKMSCKASGYTFTSYYIHWIKQTPGQGLEWVGVIYPGNDDISYNQKFQGKATLTADKSSTTAYMQLSSLTSEDSAVYYCAREVRLRYFDVWGQGTTVTVSS
VL: EIVLTQSPGSLAVSPGERVTMSCKSSQSVFFSSSQKNYLAWYQQIPGQSPRLLIYWASTRESGVPDRFTGSGSGTDFTLTISSVQPEDLAIYYCHQYLSSRTFGQGTKLEIK
notes: as for B1

Legend:
Assay in all cases: flow cytometry, HEK293-T, alanine scan;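 note: transiently transfected HEK293-T cells expressing single alanine mutants of human CD33 (alanine residues changed to serine), antibody binding fluorescence minus background, relative to wild type CD33, mean of duplicates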
[1] = biological target: human CD33 E336A (human, UniProt P20138 18-364)
Chain of human CD33 E336A (P20138 18-364 E336A limits assumed): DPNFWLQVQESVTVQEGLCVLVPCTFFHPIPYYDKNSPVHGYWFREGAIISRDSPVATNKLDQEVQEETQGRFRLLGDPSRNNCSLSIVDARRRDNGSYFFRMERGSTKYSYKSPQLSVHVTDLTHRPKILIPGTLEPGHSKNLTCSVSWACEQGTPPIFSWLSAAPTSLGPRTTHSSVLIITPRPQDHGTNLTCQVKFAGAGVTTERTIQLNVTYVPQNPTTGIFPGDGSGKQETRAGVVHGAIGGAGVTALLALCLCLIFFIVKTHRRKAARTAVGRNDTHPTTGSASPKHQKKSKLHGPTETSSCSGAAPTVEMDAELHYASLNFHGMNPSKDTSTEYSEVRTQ
Description: (§1) An alanine scan on human CD33 was performed to the determine the residues on CD33 that are involved in binding to the antibodies investigated. […] Briefly, a mutation library of CD33 was created by high-throughput, site-directed mutagenesis. Each residue was individually mutated to alanine, with alanine codons mutated to serine. The mutant library was arrayed in 384-well microplates and transiently transfected into HEK293-T. Following transfection, cells were incubated with the indicated antibodies (IgG or Fab) at concentrations pre-determined using an independent immunofluorescence titration curve on wild type CD33. […] Binding of each antibody to each mutant clone was determined in duplicates. For each point, background fluorescence was subtracted from the raw data, which were then normalized to antibody reactivity with wild type CD33.
(§2) Critical residues for antibody binding (outlined in dark grey) were residues whose mutations led to a binding of the test Abs of less than 20%. Additional secondary residues (outlined in light grey) were identified that led to a binding of the test Abs of between 20 and 40% as compared to the wild type CD33.

[2] = biological target: human CD33 F345A (human, UniProt P20138 18-364)
Description: as §1, §2

[3] = biological target: human CD33 D335A (human, UniProt P20138 18-364)
Description: as §1, §2

[4] = biological target: human CD33 L275A (human, UniProt P20138 18-364)
Description: as §1, §2

[5] = biological target: human CD33 L316A (human, UniProt P20138 18-364)
Chain of human CD33 L316A (P20138 18-364 L316A limits assumed): as the sequence (P20138 18-364 E336A limits assumed) above, with L299A, A319E counted along it
Description: as §1, §2

[6] = biological target: human CD33 A293S (human, UniProt P20138 18-364)
Description: as §1, §2

[7] = biological target: human CD33 K315A (human, UniProt P20138 18-364)
Chain of human CD33 K315A (P20138 18-364 K315A limits assumed): as the sequence (P20138 18-364 E336A limits assumed) above, with K298A, A319E counted along it
Description: as §1, §2

[8] = biological target: human CD33 P330A (human, UniProt P20138 18-364)
Chain of human CD33 P330A (P20138 18-364 P330A limits assumed): as the sequence (P20138 18-364 E336A limits assumed) above, with P313A, A319E counted along it
Description: as §1, §2

[9] = biological target: human CD33 K309A (human, UniProt P20138 18-364)
Description: as §1, §2

[10] = biological target: human CD33 V282A (human, UniProt P20138 18-364)
Chain of human CD33 V282A (P20138 18-364 V282A limits assumed): as the sequence (P20138 18-364 E336A limits assumed) above, with V265A, A319E counted along it
Description: as §1, §2

[11] = biological target: human CD33 D298A (human, UniProt P20138 18-364)
Description: as §1, §2

[12] = biological target: human CD33 P308A (human, UniProt P20138 18-364)
Chain of human CD33 P308A (P20138 18-364 P308A limits assumed): as the sequence (P20138 18-364 E336A limits assumed) above, with P291A, A319E counted along it
Description: as §1, §2

[13] = biological target: human CD33 C274A (human, UniProt P20138 18-364)
Description: as §1, §2

[14] = biological target: human CD33 S307A (human, UniProt P20138 18-364)
Description: as §1, §2

[15] = biological target: human CD33 G295A (human, UniProt P20138 18-364)
Description: as §1, §2

[16] = biological target: human CD33 K283A (human, UniProt P20138 18-364)
Description: as §1, §2

[17] = biological target: human CD33 R296A (human, UniProt P20138 18-364)
Description: as §1, §2

[18] = biological target: human CD33 A329S (human, UniProt P20138 18-364)
Description: as §1, §2

[19] = biological target: human CD33 S305A (human, UniProt P20138 18-364)
Chain of human CD33 S305A (P20138 18-364 S305A limits assumed): as the sequence (P20138 18-364 E336A limits assumed) above, with S288A, A319E counted along it
Description: as §1, §2

[20] = biological target: human CD33 S323A (human, UniProt P20138 18-364)
Description: as §1, §2

[21] = biological target: human CD33 T302A (human, UniProt P20138 18-364)
Description: as §1, §2

[22] = biological target: human CD33 G327A (human, UniProt P20138 18-364)
Description: as §1, §2

[23] = biological target: human CD33 T331A (human, UniProt P20138 18-364)
Chain of human CD33 T331A (P20138 18-364 T331A limits assumed): as the sequence (P20138 18-364 E336A limits assumed) above, with T314A, A319E counted along it
Description: as §1, §2

[24] = biological target: human CD33 L277A (human, UniProt P20138 18-364)
Description: as §1, §2

[25] = biological target: human CD33 E333A (human, UniProt P20138 18-364)
Chain of human CD33 E333A (P20138 18-364 E333A limits assumed): as the sequence (P20138 18-364 E336A limits assumed) above, with E316A, A319E counted along it
Description: as §1, §2

[26] = biological target: human CD33 C276A (human, UniProt P20138 18-364)
Chain of human CD33 C276A (P20138 18-364 C276A limits assumed): as the sequence (P20138 18-364 E336A limits assumed) above, with C259A, A319E counted along it
Description: as §1, §2

[27] = biological target: human CD33 G318A (human, UniProt P20138 18-364)
Description: as §1, §2

[28] = biological target: human CD33 R291A (human, UniProt P20138 18-364)
Chain of human CD33 R291A (P20138 18-364 R291A limits assumed): as the sequence (P20138 18-364 E336A limits assumed) above, with R274A, A319E counted along it
Description: as §1, §2

[29] = biological target: human CD33 E337A (human, UniProt P20138 18-364)
Chain of human CD33 E337A (P20138 18-364 E337A limits assumed): as the sequence (P20138 18-364 E336A limits assumed) above, with A319E, E320A counted along it
Description: as §1, §2

[30] = biological target: human CD33 T303A (human, UniProt P20138 18-364)
Description: as §1, §2

[31] = biological target: human CD33 N344A (human, UniProt P20138 18-364)
Chain of human CD33 N344A (P20138 18-364 N344A limits assumed): as the sequence (P20138 18-364 E336A limits assumed) above, with A319E, N327A counted along it
Description: as §1, §2

[32] = biological target: human CD33 V294A (human, UniProt P20138 18-364)
Description: as §1, §2

[33] = biological target: human CD33 F279A (human, UniProt P20138 18-364)
Description: as §1, §2

[34] = biological target: human CD33 S342A (human, UniProt P20138 18-364)
Description: as §1, §2

[35] = biological target: human CD33 T284A (human, UniProt P20138 18-364)
Chain of human CD33 T284A (P20138 18-364 T284A limits assumed): as the sequence (P20138 18-364 E336A limits assumed) above, with T267A, A319E counted along it
Description: as §1, §2

[36] = biological target: human CD33 H317A (human, UniProt P20138 18-364)
Description: as §1, §2

| Binder | Mean % WT Binding [1] [% WT binding] | Mean % WT Binding [2] [% WT binding] | Mean % WT Binding [3] [% WT binding] | Mean % WT Binding [4] [% WT binding] | Mean % WT Binding [5] [% WT binding] | Mean % WT Binding [6] [% WT binding] | Mean % WT Binding [7] [% WT binding] | Mean % WT Binding [8] [% WT binding] | Mean % WT Binding [9] [% WT binding] | Mean % WT Binding [10] [% WT binding] | Mean % WT Binding [11] [% WT binding] | Mean % WT Binding [12] [% WT binding] | Mean % WT Binding [13] [% WT binding] | Mean % WT Binding [14] [% WT binding] | Mean % WT Binding [15] [% WT binding] | Mean % WT Binding [16] [% WT binding] | Mean % WT Binding [17] [% WT binding] | Mean % WT Binding [18] [% WT binding] | Mean % WT Binding [19] [% WT binding] | Mean % WT Binding [20] [% WT binding] | also measured |
| --- | --- | --- | --- | --- | --- | --- | --- | --- | --- | --- | --- | --- | --- | --- | --- | --- | --- | --- | --- | --- | --- |
| B1 | 90.5 | 86.4 | 86.2 | 86.4 | 79.5 | 87.7 | 112 | 90.3 | 85.7 | 112 | 84.5 | 73.5 | 87.4 | 83 | 101 | 82.9 | 99.5 | 124 | 103 | 113 | Mean % WT Binding [21]: 77 % WT binding; Mean % WT Binding [22]: 98.7 % WT binding; Mean % WT Binding [23]: 88.1 % WT binding; Mean % WT Binding [24]: 89 % WT binding; Mean % WT Binding [25]: 121 % WT binding; Mean % WT Binding [26]: 95.4 % WT binding; Mean % WT Binding [27]: 87.1 % WT binding; Mean % WT Binding [28]: 103 % WT binding; Mean % WT Binding [29]: 114 % WT binding; Mean % WT Binding [30]: 82.4 % WT binding; Mean % WT Binding [31]: 87.9 % WT binding; Mean % WT Binding [32]: 84.6 % WT binding; Mean % WT Binding [33]: 100 % WT binding; Mean % WT Binding [34]: 101 % WT binding; Mean % WT Binding [35]: 103 % WT binding; Mean % WT Binding [36]: 71.9 % WT binding |
| B2 | 102 | 98.4 | 98.2 | 94.6 | 90.5 | 101 | 99.2 | 97.9 | 98.8 | 108 | 106 | 103 | 92.3 | 116 | 92.1 | 88.6 | 102 | 92.8 | 86.8 | 106 | Mean % WT Binding [21]: 101 % WT binding; Mean % WT Binding [22]: 92.1 % WT binding; Mean % WT Binding [23]: 90.9 % WT binding; Mean % WT Binding [24]: 104 % WT binding; Mean % WT Binding [25]: 98.7 % WT binding; Mean % WT Binding [26]: 100 % WT binding; Mean % WT Binding [27]: 89.1 % WT binding; Mean % WT Binding [28]: 104 % WT binding; Mean % WT Binding [29]: 105 % WT binding; Mean % WT Binding [30]: 95.5 % WT binding; Mean % WT Binding [31]: 67.7 % WT binding; Mean % WT Binding [32]: 104 % WT binding; Mean % WT Binding [33]: 102 % WT binding; Mean % WT Binding [34]: 102 % WT binding; Mean % WT Binding [35]: 105 % WT binding; Mean % WT Binding [36]: 95.2 % WT binding |
